For series [1], the system named is MS2 coat protein. Kind of series: apparent KD of MS2 coat protein, switch ON state; designed switch direction (-1 OFF switch, 1 ON switch): 1; higher = weaker reporter binding. The note with it: FMN input: 0 or 200 uM; Eterna round: R93 (includes R88 designs). Summed up:
(§1)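 Designed RNA switches were transcribed on-chip from Illumina sequencing clusters and titrated with SNAP-549-labelled MS2 coat protein in twofold steps from 0.7 or 1.5 nM up to 3 µM. Each step lasted 0.8–1.5 h at first and 10–20 min by the end, in 100 mM Tris-HCl pH 7.5, 80 mM KCl and 4 mM MgCl2, without or with constant ligand. Apparent KD is the median, for each design, of fits to normalised cluster binding curves.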

Series [2] has as its system MS2 coat protein. Kind of series: apparent KD of MS2 coat protein, switch OFF state (with FMN for OFF switches, without FMN for ON switches); designed switch direction (-1 OFF switch, 1 ON switch): 1; higher = weaker reporter binding. The following applies: FMN input: 0 or 200 uM; Eterna round: R93 (includes R88 designs). The method, boiled down: as §1

Regarding “AAUAUAUUAAGUGAGGAUAUCAUAGGAAAAACAUGAGGAUCACCCAUGUGGGAAACCUGGUCGGGUGAGAAGGCACUUAAUAUAU [Samwise Clockwise 30 - Jieux - Same State 2]”, the “apparent KD of MS2 coat protein” value with MS2 coat protein [1] was 37.5 nM; with MS2 coat protein [2], 217 nM.
For the sequence “GAAAAACAUGAGGAUCACCCAUGUAGAAAUAUGGGAGGAUAUACAAAGACGAAAGUCAAAGUAGAAGGCCUGAGAA [Mat - Same State 1 - Eli mod - 83]”, the “apparent KD of MS2 coat protein” value in the series on MS2 coat protein [1] stood at 21 nM; in the series on MS2 coat protein [2] it was 103 nM.
For “CGGAAGGAGAGAGAGGAUAUCCAAAGGAAAACAUGAGGAUCACCCAUGUAGAAGGUAGGAAAUUGGGAGAAGGCUCAAGAGAGUG [salish99-ss2-121]” the same measures were 30.2 nM and 44.6 nM.
“AAGAAACAUGAGGAUCACCCAUGUACCCAAAAGGGAGGAUAUCCGAAAGAAAGAAAGAAAGGAGAAGGCCCAUGAA [Xerxes II]”: the “apparent KD of MS2 coat protein” value in the series with MS2 coat protein [1] was 12.6 nM; in the series with MS2 coat protein [2], 34.2 nM.
For “CAAAACAAAACAUAGGAUAUCAAAACAAAAACAUGAGGAUCACCCAUGUGGAAACAUGAGAAGGAUGAGAAGGAAAACAAAACAA [Meechl SS2 R2 m7]” the same measures were 25 nM and 49.6 nM.
Turning to “AGGAAACAUGAGGAUCACCCAUGUAAAUAUGGGCGAGGAUAUCGAAAGAAAAGAAAGAAACGAGAAGGCGCAAAAG [GU on the end]”, the results for the “apparent KD of MS2 coat protein” value in the series with MS2 coat protein [1] and with MS2 coat protein [2] were 49.2 nM and 295 nM, respectively.
Take “CCUAGGAAGAGAGAGGAUAUCCAAAGGAAAACAUGAGGAUCACCCAUGUAAAAGGUAGGAAAUUGGGAGAAGGCUCAAGAGAGAG [salish99-ss2-088]”: the results for the “apparent KD of MS2 coat protein” value with MS2 coat protein [1] and in the series with MS2 coat protein [2] were 20.9 nM and 23.9 nM, respectively.
For “AAGAAACAUGAGGAUCACCCAUGUAAGAUAAACACAGGAUAUGCGAAAGAAACAAAGAAAGCAGAAGGGUGAAGAA [Mat - Same State 1 - Tesla mod - 48]” the same measures were 9.76 nM and 26.8 nM.
For “GUGGACGUAGGAUAGGAUAUAUGAAUAAUUACAUGAGGAUCACCCAUGUCCAUUUAUAUGGGAACAUAGAAGGGUUGUGGUUAAC [Mat - Same state - Malcolm Mod - D132]” the same measures were 364 nM and 602 nM.
Take “AGAAAACAUGAGGAUCACCCAUGUCAGAAAUGGCAAGGAUAUAGAAAAGAAAAAGAAAAACUAGAAGGUGCAAAAG [Meechl SS1 R2 m2]”: the entries for the “apparent KD of MS2 coat protein” value in the series with MS2 coat protein [1] and in the series on MS2 coat protein [2] were 187 nM and 153 nM, respectively.
On to “AAGAAACAUGAGGAUCACCCAUGUAAGAUAAACACAGGAUAUGCGAAAAGAAAUAAAGAAGCAGAAGGGUGAAGAA [Mat - Same State 1 - Tesla mod - 63]”, for which the “apparent KD of MS2 coat protein” value turned out to be 21.7 nM in the series on MS2 coat protein [1] and 54.3 nM with MS2 coat protein [2].
For the sequence “AACAAUCUAUCUGAGGAUAUCAUGUCAAAGACAUGAGGAUCACCCAUGUCCAGGAAAACUGGUCAUGAGAAGGCAGAUAGAUUGA [SS2: 1111]”, the “apparent KD of MS2 coat protein” value with MS2 coat protein [1] was 51.3 nM; in the series with MS2 coat protein [2] it was 887 nM.
Take “CAUAGACAUGAGGAUCACCCAUGUAGAAUUAUGGGAGGAUAUACAAAGACGAGAGUCAGAGUAGAAGGCCUAGGAC [salish99-ss1-164]”: the results for the “apparent KD of MS2 coat protein” value in the series with MS2 coat protein [1] and in the series on MS2 coat protein [2] were 18.9 nM and 28.3 nM, respectively.
“CGAGAGGAGAGAGAGGAUAUCCAAAGGAAAACAUGAGGAUCACCCAUGUAGAAGGUAGGAGAUUGGGAGAAGGCUCAAGAAGAAG [salish99-ss2-159]”: the figures for the “apparent KD of MS2 coat protein” value in the series with MS2 coat protein [1] and with MS2 coat protein [2] were 18.2 nM and 26 nM, respectively.
“AAAACACAUGAGGAUCACCCAUGUAGAAAUAUGGGAGGAUAUACGAAAACGAAAGUCAAAGUAGAAGGCCUAAAAG [saturn 3]”: the “apparent KD of MS2 coat protein” value was found to be 30.9 nM in the series on MS2 coat protein [1] and 79 nM with MS2 coat protein [2].
For “AAAAAAGAUCGCGAGGAUAUCCGAGUGGUAACAUGAGGAUCACCCAUGUGAAGAAAGGAACAUGAGGAGAAGGCGCGAUCAAAAA [viburnum 5]”, in that order: 10.9 nM and 18.7 nM.
For the sequence “GACAAACAUGAGGAUCACCCAUGUAGAAAUAUGGGAGGAUAUACACAGACGAAAGUCAAAGUAGAAGGCCUAAAAG [77%, Mat - Mod of Eli - With 2 more C's]”, the “apparent KD of MS2 coat protein” value in the series on MS2 coat protein [1] was 28.5 nM; with MS2 coat protein [2], 137 nM.
Turning to “AAUACACAUAGUCAGGAUAUCAAAAAUAAGACAUGAGGAUCACCCAUGUAAUAAGUAAAAGUAAAUGAGAAGGGACAGGGUGAAA [JR_SS002_Sub402]”, the “apparent KD of MS2 coat protein” value with MS2 coat protein [1] is 33 nM; in the series with MS2 coat protein [2] it was 79.3 nM.
For “CGAAGACAUGAGGAUCACCCAUGUGGGAUUAUGGGAGGAUAUACAAAGACGAGAGUCAGAGUAGAAGGCCUAGGAC [salish99-ss1-127(!)]”, the figures for the “apparent KD of MS2 coat protein” value with MS2 coat protein [1] and in the series with MS2 coat protein [2] were 26 nM and 33.4 nM, respectively.
For “AUAAAACAUGAGGAUCACCCAUGUCAGAAAUGGCAAGGAUAUAGAAAAUAAAAAUAAAAACUAGAAGGUGCAAAAU [Meechl SS1 R2 m1]”, the results for the “apparent KD of MS2 coat protein” value in the series with MS2 coat protein [1] and with MS2 coat protein [2] were 74.9 nM and 198 nM, respectively.
Regarding “GAGAUACAUGAGGAUCACCCAUGUUGAAACAUGGGAGGAUAUACAAGGUCGAAAGAUAAGGUAGAAGGCCUAAAAG [LROPPY Same State 1 - v04_deltaG=3.]”, the “apparent KD of MS2 coat protein” value stood at 37.6 nM in the series on MS2 coat protein [1] and 20.3 nM in the series on MS2 coat protein [2].
Consider “AAUAUAUUAAGUGAGGAUAUCGAGGAAAAAACAUGAGGAUCACCCAUGUGGGUAAAAAAAAAAAGUGAGAAGGUGCUUAAUAUAU [Samwise Clockwise 10 - Jieux - Same State 2]”, for which the “apparent KD of MS2 coat protein” value in the series on MS2 coat protein [1] worked out at 32.3 nM; in the series with MS2 coat protein [2] it was 128 nM.
Regarding “AAAUAAAUGACUAAGGAUAUAUCAAAGAAAACAUGAGGAUCACCCAUGUAAUAAUAAAAAGGGUGAUAGAAGGUAGUCAACAAAC [74%, More Paria 4]”, the “apparent KD of MS2 coat protein” value in the series on MS2 coat protein [1] stood at 23.7 nM; in the series on MS2 coat protein [2], 221 nM.
Turning to “AUAAAUAAAGAUCAGGAUAUUAUAAAGAUAACAUGAGGAUCACCCAUGUAAAACAAAAUUAUGGGUAAGAAGGGAUCAAAUAAAU [SS2 M 20]”, the “apparent KD of MS2 coat protein” value in the series on MS2 coat protein [1] came out at 46.9 nM; in the series with MS2 coat protein [2], 184 nM.
For “GAAAAACAUGAGGAUCACCCAUGUACAAAUAUGGAAGGAUAUACGAUGACGAAAGUCAAAGUAGAAGGUCUAAAAG [Garnet 98]” the same measures were 20.9 nM and 25.4 nM.
For “AUAUAUAUAAGGUAGGAUAUACUAAAGUAAACAUGAGGAUCACCCAUGUAAAGAAAGAAACUCAUGUAGAAGGACCAUAUAUAUAU [Ex 6 sub 1]”, in that order: 24.8 nM and 163 nM.
For “AGAUCUAGAAGGUAGGAUAUGUGUAAAAAUACAUGAGGAUCACCCAUGUGAUGAAUAAAAAGAAAAUAGAAGGACCAUCUAGAUC [Cross swing 3]”, in that order: 16.8 nM and 119 nM.
Consider “GGGAGUAACAGAGAGGAUAUCCAAAGGAAAACAUGAGGAUCACCCAUGUAAAAGGAAGGAAAUUGGGAGAAGGCUCAAAAUAGAA [salish99-ss2-021]”, for which the “apparent KD of MS2 coat protein” value came out at 13.9 nM with MS2 coat protein [1] and 27 nM with MS2 coat protein [2].
As for “CGGAAGGAGAGGGAGGAUAUCCAAAGGAAAACAUGAGGAUCACCCAUGUAGAAGGUAGGAAAUUGGGAGAAGGCUCAAGAGAGAG [salish99-ss2-131]”, the “apparent KD of MS2 coat protein” value worked out at 32.3 nM with MS2 coat protein [1] and 24.4 nM with MS2 coat protein [2].
Consider “GUGGUGUAGGUACAGGAUAUGUUGCUCGUAACAUGAGGAUCACCCAUGUACCUAUGAGAUUAAAUGCAGAAGGGUGCACACCACG [Alage]”, for which the “apparent KD of MS2 coat protein” value is 37.3 nM in the series with MS2 coat protein [1] and 118 nM in the series on MS2 coat protein [2].
For “AAUAUACAUGAGGAUCACCCAUGUUAGGUGGGUCAAGGAUAUCAAAAUAAAUAAAGAACAUGAGAAGGUGAAUAAA [JR_SS001_Sub018]”, in that order: 207 nM and 161 nM.
Take “GAAAAACAUGAGGAUCACCCAUGUAGAAAUAUGGGAGGAUAUACAAAGACGAAAGUCAAAGUAGAAGGCCUGAAGA [Mat - Same State 1 - JL mod - D91]”: the entries for the “apparent KD of MS2 coat protein” value in the series with MS2 coat protein [1] and in the series with MS2 coat protein [2] were 27.1 nM and 73.1 nM, respectively.
For “AACAAUCUAUCUGAGGAUAUGUGUCGAAAGACAUGAGGAUCACCCAUGUGAAAACAUGAAAAAACACAGAAGGCAGAUAGAUUGA [SS2: 1147]” the same measures were 33.6 nM and 70.6 nM.
Consider “AAACCACAUGAGGAUCACCCAUGUGAAAUACAUACAGGAUAUGCGAAAAGAAACAAAGAAGCAGAAGGGUGAAAAA [75%, Ex sub1, 18]”, for which the “apparent KD of MS2 coat protein” value in the series with MS2 coat protein [1] is 15.9 nM; with MS2 coat protein [2], 25.4 nM.
As to “UUUCAUUACACGAAGGAUAUCGCUUUUCAGACAUGAGGAUCACCCAUGUAGUAGAUUUCCCUGUUCGAGAAGGUCGCGGGUGAAC [JR_SS002_Sub603]”, the “apparent KD of MS2 coat protein” value in the series on MS2 coat protein [1] came out at 51.5 nM; in the series with MS2 coat protein [2], 70.4 nM.
For “AAGAAACAUGAGGAUCACCCAUGUAGAAAUAUGGGAGGAUAUACGAGGACGAAAGUCAAAGUAGAAGGCCUAAGAA [Mat - Same State 1 - Meechl mod - D130]” the same measures were 19.6 nM and 66.9 nM.
Regarding “UGGAGGAAGAGAGAGGAUAUCCAAAGGAAAACAUGAGGAUCACCCAUGUAAAAGGUAGGAAAUUGGGAGAAGGCUCAAGAGAGAG [salish99-ss2-059]”, the “apparent KD of MS2 coat protein” value in the series with MS2 coat protein [1] was 37.2 nM; in the series on MS2 coat protein [2], 63.7 nM.
With “CGGAGACAUGAGGAUCACCCAUGUGAGAAGAGGCGAGGAUAUCGAAAGAAAGAAGAGAAACGAGAAGGCGCGAGUC [salish99-SS1-078]”, the figures for the “apparent KD of MS2 coat protein” value in the series on MS2 coat protein [1] and in the series with MS2 coat protein [2] were 20.4 nM and 25 nM, respectively.
